Measured values as given in article PMC12053792 (Journal of Peptide Science, 2025).
Entries after “also recorded” stand apart in the source; their conditions may differ.

Assay: Circular dichroism (secondary structure)
Assay type: physicochemical
Protocol: CysBAGE4‐MalLNP and 2‐LNP formulations were analysed using DLS, circular dichroism (CD), and TEM. DLS analysis: CysBAGE4‐MalLNP and 2‐LNP formulations were diluted with Milli‐Q water and transferred to disposable cuvettes before measurement at 25°C with a 173° light scattering angle, […]. CD analysis: CysBAGE4‐MalLNP and 2‐LNP formulations were diluted with Milli‐Q water and analysed using a quartz cell with a 0.01 mm path length. Spectra were measured using a 0.5 nm step, 1 nm bandwidth and 1 s collection time per step. […]
NMR samples were analysed on either a Bruker AVIII 400 NMR system (1H-NMR frequency 400 MHz; 13C-NMR frequency 101 MHz) or a Bruker 500 MHz system (1H-NMR frequency 500 MHz; 13C-NMR frequency 125 MHz). […]
High-resolution mass spectra were recorded on a Bruker MicroTOF Focus II MS (ESI) operating in positive or negative ionisation mode. […]
Peptides were analyzed using a Waters Sunfire 5 μm, 2.1 x 150 mm column (C-18) at a flow rate of 0.6 mL/min. […]
Dynamic Light Scattering (DLS) Spectra were recorded using a Zetasizer Nano ZS (Malvern Panalytical) to measure the particle size and charge. […]
Circular Dichroism (CD) Spectra were recorded using a Chirascan spectropolarimeter (Applied Photophysics, U.K.). […]
windows, with 0.01 mm path length. Spectra were measured using a 0.5 nm step, 1 nm […]

Substance: 3: vaccine‐adjuvant construct Pam2Cys‐SK4‐NY‐ESO‐1_157‐165 [compound 3]
- α‐helical character (f α) (CD spectra, Figures S12 and S13): 0.41
- Secondary structure (in words) (CD, 0.01 mm path length, 180–280 nm): form α‐helical structures; also recorded: significantly more α‐helical character
